Patent US20220387578A1 (VANDERBILT UNIVERSITY, published 2022)
Numbering of substitutions follows the chain as printed.

Legend:
eHead_H1_v3.1_KO3_mC = molecular target: T1, eHead_H1_v3.1_KO3_mC; assay: SPR
T1 chain: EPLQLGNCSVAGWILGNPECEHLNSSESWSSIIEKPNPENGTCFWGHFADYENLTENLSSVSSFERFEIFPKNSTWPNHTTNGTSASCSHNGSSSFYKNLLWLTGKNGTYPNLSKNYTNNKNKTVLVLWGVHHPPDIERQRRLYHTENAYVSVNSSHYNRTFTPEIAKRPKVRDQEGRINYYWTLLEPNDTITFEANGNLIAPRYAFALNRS

eHead_H1_v3.1_KO1_mC = molecular target: T2, eHead_H1_v3.1_KO1_mC; assay: SPR
T2 chain: T1 chain with E1L, W45P, R178A

eHead_H1_v3.0_mC = molecular target: T3, eHead_H1_v3.0_mC; assay: SPR; y axis without title or unit
T3 engineered HA head domain: T1 chain with W45P, R139D

eHead_H1_g2.10_mC = molecular target: T4, eHead_H1_g2.10_mC; assay: SPR; y axis without title or unit
T4 chain: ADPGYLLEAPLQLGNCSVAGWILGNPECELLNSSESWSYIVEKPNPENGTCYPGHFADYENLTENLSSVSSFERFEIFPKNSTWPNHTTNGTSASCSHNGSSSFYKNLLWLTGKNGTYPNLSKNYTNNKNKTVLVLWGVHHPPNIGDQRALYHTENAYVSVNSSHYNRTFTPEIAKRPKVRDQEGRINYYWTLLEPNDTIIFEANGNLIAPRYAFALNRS

B1: FluA20 (as used in the SPR experiments of Example 4) (antibody, V domains shown)
VH: QVQLQESGPGLVKPSETLSLTCSVSGVSVTSDIYYWTWIRQPPGKGLEWIGYIFYNGDTNYNPSLKSRVTMSIDTSKNEFSLRLTSVTAADTAVYFCARGTEDLGYCSSGSCPNHWGQGTLVTVSS
VL: DIQMTQSPSSLSASIGDRVTITCRPSQNIRSFLNWFQHKPGKAPKLLIYAASNLQSGVPSRFSGSGSGTEFTLTIRSLQPEDFATYYCQQSYNTPPTFGQGTKVEIK
Does B1 bind (eHead_H1_v3.1_KO3_mC)?
Result: no binding

Does B1 bind (eHead_H1_v3.1_KO1_mC)?
Result: no binding

Does B1 bind (eHead_H1_v3.0_mC)?
Result: binds

Does B1 bind (eHead_H1_g2.10_mC)?
Result: binds
